The Human Domainome abundance scans (Beltran et al. 2025)
± gives the uncertainty stated by the source.

B1: Far upstream element-binding protein 1, residues 184 to 257; numbered along this chain, Q96AE4 (parent)
chain: GNAVQEIMIPASKAGLVIGKGGETIKQLQERAGVKMVMIQDGPQNTGADKPLRITGDPYKVQQAKEMVLELIRD

Variants of: B1
Assay: abundance fitness (aPCA) (normalised: wild type 0, dead -1); higher = more abundant; growth selection in yeast, the domain comes from the species named
Details: Homo sapiens

Row | Variant | abundance fitness
1 | GNAVQEIMIDASKAGLVIGKGGETIKQLQERAGVKMVMIQDGPQNTGADKPLRITGDPYKVQQAKEMVLELIRD [P10D] | -0.355 ± 0.045
2 | GNAVQEIMIPASKAGLVIGKGGMTIKQLQERAGVKMVMIQDGPQNTGADKPLRITGDPYKVQQAKEMVLELIRD [E23M] | -0.041 ± 0.038
3 | GNAVQEIMIPASKAGLVIGKGGNTIKQLQERAGVKMVMIQDGPQNTGADKPLRITGDPYKVQQAKEMVLELIRD [E23N] | -0.026 ± 0.055
4 | GNAVQEIMIPASKAGLVIGKGGYTIKQLQERAGVKMVMIQDGPQNTGADKPLRITGDPYKVQQAKEMVLELIRD [E23Y] | -0.067 ± 0.046
5 | GNAVQEIMIPASKAGLVIGKGGETIKQLQERAGVKMVMIQDGPQWTGADKPLRITGDPYKVQQAKEMVLELIRD [N45W] | -0.105 ± 0.042
6 | GNAVQEIMIPASKAGLVIGKGGETIKQLQERAGVPMVMIQDGPQNTGADKPLRITGDPYKVQQAKEMVLELIRD [K35P] | -0.472 ± 0.042
7 | GNAVQEIMIPASKAGLVIGKGGETIKQLQERAGVCMVMIQDGPQNTGADKPLRITGDPYKVQQAKEMVLELIRD [K35C] | -0.11 ± 0.043
8 | GNAVQEIMIPASKAGLVIGKGGETIKQLQERAGVRMVMIQDGPQNTGADKPLRITGDPYKVQQAKEMVLELIRD [K35R] | -0.007 ± 0.027
9 | SNAVQEIMIPASKAGLVIGKGGETIKQLQERAGVKMVMIQDGPQNTGADKPLRITGDPYKVQQAKEMVLELIRD [G1S] | -0.14 ± 0.045
10 | GNAVQEIMIPASKAGLVIGKGGETIKQLQERAGVKMVMIQDGPQNTGADKPLRETGDPYKVQQAKEMVLELIRD [I54E] | -0.883 ± 0.053
11 | GNAVQEIMIPASKAGLVIGKGGETIKQLQKRAGVKMVMIQDGPQNTGADKPLRITGDPYKVQQAKEMVLELIRD [E30K] | -0.01 ± 0.042
12 | GNAVQEFMIPASKAGLVIGKGGETIKQLQERAGVKMVMIQDGPQNTGADKPLRITGDPYKVQQAKEMVLELIRD [I7F] | -0.229 ± 0.055
13 | GNAVQELMIPASKAGLVIGKGGETIKQLQERAGVKMVMIQDGPQNTGADKPLRITGDPYKVQQAKEMVLELIRD [I7L] | -0.026 ± 0.03
14 | GNAVQEIMIPASKAGDVIGKGGETIKQLQERAGVKMVMIQDGPQNTGADKPLRITGDPYKVQQAKEMVLELIRD [L16D] | -0.053 ± 0.046
15 | GNAVQEIMIPASKAGYVIGKGGETIKQLQERAGVKMVMIQDGPQNTGADKPLRITGDPYKVQQAKEMVLELIRD [L16Y] | -0.045 ± 0.052
16 | GNAVQEIMIPASKAGLVIGKGGETIKQLQERAGVKMVMIQDGPQNTGADKPLRITGDPYKVQQAKCMVLELIRD [E66C] | -0.106 ± 0.039
17 | GNAVQEIMIPASKAGLVIGKGGETIKQLQERAGVKMVMIQDGPQNTGADKPLRITGDPYKVQQAKVMVLELIRD [E66V] | -0.072 ± 0.03
18 | GNAVQEIMIPASKAGLVIGKGGETIKQLQERAGVKMVMIQDGPQNTGADKPLRITGDPYKVQQAKMMVLELIRD [E66M] | -0.08 ± 0.036
19 | GNAVQEIMIPASKAGLVIGKGGETIKQLQERAGVKMVMIQDGPQNTGADKPLRITGDPYHVQQAKEMVLELIRD [K60H] | -0.01 ± 0.047

Row | Variant | abundance fitness
20 | GNAVQEIMIPASKAGLVIGKGGETIKQLQERAGVKMVMIQDGPQNTGADKPLRITGDPYKVQNAKEMVLELIRD [Q63N] | -0.107 ± 0.049
21 | GNAVQEIMIPASKAGLVIGKGGETIKQLQERAGVKMVMIQDGPQNTGADKPLRITGDPYKVQMAKEMVLELIRD [Q63M] | -0.026 ± 0.036
22 | GNAVQEIMIPASKAGLVIGKGGETIKQLQERAGVKMVMIQDGPQNCGADKPLRITGDPYKVQQAKEMVLELIRD [T46C] | -0.058 ± 0.049
23 | GNAVQEIMIPASKAGLVIGKGGETIKQLQERAGVKMVMIQDGPQNVGADKPLRITGDPYKVQQAKEMVLELIRD [T46V] | -0.004 ± 0.032
24 | GNAVQEIMIPASKAGLVIGKGGETIKQLQERAGVKMVMIQDGPQNPGADKPLRITGDPYKVQQAKEMVLELIRD [T46P] | -0.012 ± 0.034
25 | GNAVQEIMIPASKAGLVIGKGGETIKQLQERAGVKMVMIQDGPQNTGADKPLRITGDPYKVQQAKEMMLELIRD [V68M] | -0.156 ± 0.034
26 | GNAVQEIMIPASKAGLVIGKGGETIKQLQERAGVKMVMIQDGPQNTGADKPLRITGDPYKVQQAKEMILELIRD [V68I] | -0.023 ± 0.044
27 | GNAVQEIMIPASKAGLVIGKGGETIKQLQESAGVKMVMIQDGPQNTGADKPLRITGDPYKVQQAKEMVLELIRD [R31S] | -0.008 ± 0.03
28 | GNAVQEIMIPASKAGLVIGKGGETIKQLQETAGVKMVMIQDGPQNTGADKPLRITGDPYKVQQAKEMVLELIRD [R31T] | -0.042 ± 0.035
29 | GNAVQEIMIPASKAGLVIGKGGETIKQLQEQAGVKMVMIQDGPQNTGADKPLRITGDPYKVQQAKEMVLELIRD [R31Q] | 0.017 ± 0.038
30 | GNAVQEIMIPASKAGLVIGKGGETIKQLQERAGVKMVMIQDGPYNTGADKPLRITGDPYKVQQAKEMVLELIRD [Q44Y] | -0.002 ± 0.06
31 | GNAVQEIMIPASKAGLVIGKGGETIKQLQERAGVKMVMIQDGPMNTGADKPLRITGDPYKVQQAKEMVLELIRD [Q44M] | -0.007 ± 0.04
32 | GNAVQEIMIPASKAGLVIGKGGELIKQLQERAGVKMVMIQDGPQNTGADKPLRITGDPYKVQQAKEMVLELIRD [T24L] | -0.099 ± 0.031
33 | GNAVQEIMIPASKAGLVIGKGGEAIKQLQERAGVKMVMIQDGPQNTGADKPLRITGDPYKVQQAKEMVLELIRD [T24A] | -0.075 ± 0.032
34 | GNAVQEIMIPASKAGLVIGKGGEWIKQLQERAGVKMVMIQDGPQNTGADKPLRITGDPYKVQQAKEMVLELIRD [T24W] | -0.224 ± 0.035
35 | GNAVQEIMIPASKAGLVIGKGGETIKQLQERAGVKMGMIQDGPQNTGADKPLRITGDPYKVQQAKEMVLELIRD [V37G] | -0.172 ± 0.026
36 | GNAVQEIMIPASKAGLVIGKGGETIKQLQERAGVKMIMIQDGPQNTGADKPLRITGDPYKVQQAKEMVLELIRD [V37I] | -0.049 ± 0.048
37 | GNAVQEIMIPASKAGLVIGKGGETIKQLQERAGVKMVMIQDGPQNTGADKPLRITGDPYKVQQAKEMVVELIRD [L69V] | -0.082 ± 0.032
